Measurements reported in the domain aggregation screens of Martell et al. (2025).

Assay: soluble fraction after stress (log2 fold change); higher = more stays soluble; pooled small domains, quantitative proteomics
Conditions: stress: 75 degC
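Further: 20 min heating vs room temperature control held 20 min.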

Sequence: HMQVTGLTAENAHRVTMIREKGTDHPPVPFHFRKEHHGTGNYVHLYGNPEDRNELHSRDFKDWEAVAFK
- soluble fraction (log2): 0.211

Sequence: HMQVVDWSQVDKEDYLLATKRRAVSTGELKFLLLNNLTYDLTQTRFFKGMDASYYYEGYNLYQTGE
- soluble fraction (log2): 0.0696

Sequence: HMQWGKVRRLPSGRYQASYVHKGTRYTAPETYTVQGRAHGWIESERRLIVTDTWTPPDTRPS
- soluble fraction (log2): -1.24

Sequence: HMQWLDSIRSRLRVGQTISYFEPRENASSSGLIIELRRKRVLVLEIATQKRWLIEYAAINVDG
- soluble fraction (log2): -0.279

Sequence: HMQWQPSEEAMQRLEQHGIPRAFSFSQLDAFVLQGQEQGSNRNDWNTRFFRFIKNQWVYAQN
- soluble fraction (log2): -2.59

Sequence: HMQYDSYTVEEPAKLLDWLLAHLRQSRTKIKATLQGHGIKVNGKTVTQFDYPLEPGMKIRVSLTK
- soluble fraction (log2): -1.24

Sequence: HMQYKTRVINLSILEVGMVLGRDLINKDGKIIVKKDVAISDFLKDHLIGLSKIKEIEPQIYIKV
- soluble fraction (log2): -1.15

Sequence: HMQYSIQVNKLLKAMREDVWYTANEILDLLKLKSKETLRKNYLDPAINNKLIILELPDKPTSRNQRYKI
- soluble fraction (log2): -2.03

Sequence: HMQYTQKTMYINDSYVNLRKSASTSSDIIMVVELNTKLTVIGEDGDWYKVKTSSGNAYVLKTLLSNEKKET
- soluble fraction (log2): -3.22

Sequence: HMQYTTDEVRERVLSVLNQLLLRWIVREGKDMFNIQANAVEISEGIKGELNTELEKIGLAATGFQIDSV
- soluble fraction (log2): -0.393

Sequence: HMRADRLISMLMLLQARGKITAEELAVELGVSQRTIYRDIEALSFAGVPVYAERGPGGGIGLLEPY
- soluble fraction (log2): -1.73

Sequence: HMRAEPNSNYSLAIIYKNRYDIAVKKKDAVKEVEYGKMVYEYLNKYVVLSGNKSAKYKKILNYFSSY
- soluble fraction (log2): -3.02

Sequence: HMRAFTPSEAQVAHARRVMEAFWQHQREGHGAFALDGKMVDAPIVKAAARVLARAGLQDPNHPIHLA
- soluble fraction (log2): -0.332

Sequence: HMRALPFSFANRHGVLIREISDGVAHAVYRIGSSPLGLAEARRFVGMPLMLTPVAREAFDSLLQQTYEQG
- soluble fraction (log2): -2.39

Sequence: HMRAPEIEAARSDLDVGQTVQIVRHLHGNQYEVFYRGAQWQAEAVGSSGANDAQTAVITGKNGNILLIQI
- soluble fraction (log2): 0.0986

Sequence: HMRAVPTKLAPFVEVLKAMLEADGHRPKAQRRTAKALHLELISRGYAGGYTRLTDYIRDWRQQQG
- soluble fraction (log2): -2.36

Sequence: HMRDANYFINPIHEWQKRYEALRASFVDRLPAQAVAQRFGYTITYIHLLRHQFKSGKIDFSEPVPEG
- soluble fraction (log2): -4.19

Sequence: HMRDFTQPQTASIGPRMREALARGTMTVEELREQFRTQEFPHESVRTAFLEELERVAAELGLA
- soluble fraction (log2): 0.349

Sequence: HMRDISTDTSAWTFQDIKRYYDPQDLLTEKQVGQALSLIKGRNLNPLLNEVYIVAYKKKNGGAEFSLIV
- soluble fraction (log2): -0.224

Sequence: HMRDPLNTGFRQTLKDIVNSLPKNELYSPGVREEYIYPKIGVTSLGMEASMVLNGLISSRRKNIELKEKN
- soluble fraction (log2): 0.369

Sequence: HMRDPVDKDNYLGDWDKNKTYPAGYVMTFGDKNYLALQEVPAGTKPGATDPDPFWVLDTGKTLKD
- soluble fraction (log2): -0.14

Sequence: HMRDQARQFFIDTWAKFQRHDALTPLEEKTAAIIALHPEYHRVLQNPESFITTDWRPESGDINPFMHL
- soluble fraction (log2): -2.02

Sequence: HMRDSYEVEGRIASVSPAAGTFVVAGVTVDYTGARFVGGTVAQLAPGVKVEVEGRRLANGTLQAREIEFD
- soluble fraction (log2): -0.142

Sequence: HMRDSYTFEDIEKLKDSYLQDSEKALEKLISIYEDTNQSLAIRTAALDIITDSQDPTFKLALEKIIS
- soluble fraction (log2): -0.177

Sequence: HMRDTAKTLLAMEVVGENNKKNLQAFGIQKGDQNYQTAVVVRLMQKALMEGDTSAIRLIGELTGD
- soluble fraction (log2): -0.0652

Sequence: HMRDTLSKQLLTEEMVLQFIREMREHDPGIGGEKLHAMYLGRFGRDYEYMVGRDKMEMIIAENNLNVR
- soluble fraction (log2): -0.996

Sequence: HMRDYDFGNLLYKLRIESGYTQKDIADMLGVTDKAVSKWENGIAKPTTNNIKLLSTIYNVSVEELLNG
- soluble fraction (log2): -1.19

Sequence: HMRDYKTALQEWVQRTPGQPIAYRLVDELGPDHARVFVMEVTVGGQSAGQGRGRTKKEAEQLAARAALEKL
- soluble fraction (log2): -0.448

Sequence: HMREEIESVYKTLAVTEIPYIARGNSARLGSGIQTVYDFYRMEGMQVSKILGRNGSVLWLELHG
- soluble fraction (log2): 0.0223

Sequence: HMREEMYGLIGFITTSEVTDTFGQMEIKLENEPEMRINVRTNPGESLARGDAAKIISFNNSNGTFLVELTK
- soluble fraction (log2): -0.921

Sequence: HMREFQVMKQELQEMVHQRLDMSTELSDEAIGDVIDEVIMEKSRNMYISSVTKLTLRQELFNAIR
- soluble fraction (log2): -1.68

Sequence: HMREGRERRLSQLLSYLRTHHILTRSEYVKLTGLSPTAASSELKTFVTAGHIVRKGIASHSTYRLPH
- soluble fraction (log2): -1.91

Sequence: HMREKLKEYVHLLFAGTVGKEDMEQEILQNTLDRFDDWVARGFSEEDAYRKAVSGIGDIDALLG
- soluble fraction (log2): -0.0221

Sequence: HMREPDPELTASIKSMAESNDQSERLVALAQLSEQRAVDPEVADQILLIALLDEDPIIRGQAVYA
- soluble fraction (log2): 0.274

Sequence: HMRERLPFGFAQSKKVVLLSTESDTPKVLSVNWPSLDLYAELKRVIGRAFLLEIVSEEEFQAQVSDAYQRD
- soluble fraction (log2): -2.47

Sequence: HMREVGVPNLRGLTAEEAQIVLSNAGLNLRTEPIRRVHETITVGRIAEQDPMPDLTIRSQRSVTTWLSSGP
- soluble fraction (log2): 0.328

Sequence: HMREVTVGSAVRLKKGAKTYSGGSLASFVYERNHQVTQLSGDRAVISFKGTVVAAVHKDDLIL
- soluble fraction (log2): -1.06

Sequence: HMREVVLNRIGSVAVQRATTRTWEEWVVTLDAEGMRGKEHRDVVGHLLRAHELTSWWAQMVSVGYEQSRGQ
- soluble fraction (log2): -0.18

Sequence: HMREYRITAEEGHPRIDVFLAGRPEIGLSRSRIQALIDEGQVTLNGAMPKARQAVNPGDVIVVRVPDPE
- soluble fraction (log2): 0.0963

Sequence: HMRFEWFDTLTDREKEIFGLIATGFDNQQIADRLQLAEQTVRNNISTIYSKLEVKDRFEIIRLANTI
- soluble fraction (log2): -1.35

Sequence: HMRFKPLAEILAAVQTRYAGRVLDVELDRDQAGRNVYEVKLLAADGSRREIHIDAVTGKEVSL
- soluble fraction (log2): -0.56

Sequence: HMRGAIKMAEEQMAGHKKIGSISGTAPTQGELEKKFAMAAAQMGARYYVITGLSNNNYAFGNADIY
- soluble fraction (log2): -0.669

Sequence: HMRGDEDTGVWPTPMKRAYIDSLLKGYPTGVTMIVKPPGASHTTKWMILDGANRARALRDFMNDEFMI
- soluble fraction (log2): -0.0871

Sequence: HMRGFTDFEHIEKEYLATIEKLNWPDGVTLPDKLEGEDTGTSFQVGYGDTRASNLWEYSWMK
- soluble fraction (log2): -0.163

Sequence: HMRGIPEEVADVAIQWVARLDSNEISDADRAAFFAWLDASPINRWAYNDISESWAKLSILNEMGH
- soluble fraction (log2): -1.87

Sequence: HMRGLFTVYMVGEKASRVGELDEEMVYESRIGDVFALGATSWRIEEITHDRVLVSPAYGQPGRLPFWH
- soluble fraction (log2): -2.13

Sequence: HMRGLGDLEPVDSLGKIRIDDGHMVLAFGRHKGRHLSEVQAEDPRYIHWLLSPKGIEDVEAREKVKVYLEG
- soluble fraction (log2): 0.0762

Sequence: HMRGLLSQREHDVLDLVARGFSYGEIARLRSISVSTVQTHIKNLYRKLAVSSRTEAVYEAKQMGI
- soluble fraction (log2): -1.63

Sequence: HMRGLVPEIVGTLEGEIRAGTLAVGQKLPTEAEIMARFDVSRTVVREALSRLQASDLVETRHGIGTFVSAR
- soluble fraction (log2): -0.647

Sequence: HMRGPDLSKDFHEYISSQWMFFGRNAYQIAEQINKDTQLMSKYGKTTPSGVHYHIKQIQQEMEN
- soluble fraction (log2): -0.785

Sequence: HMRGPPQVLVDVELEDGRVGQIGVRNGDDATELAETFVRAFRLEQSFVGRLANVIQGKIRELLHSQ
- soluble fraction (log2): -1.74

Sequence: HMRGSRIFSGDVSPLTLPANSPFFSGYTEFKPGDVYVERSATNIAMWEWKSQPGGYTWVKTADIA
- soluble fraction (log2): -1.27

Sequence: HMRGYGDRIRILRERAGITIEQLAERLGVAPYFIRRTELSEVYPTKPYIEALADVLNIDASYLARHI
- soluble fraction (log2): -2.46

Sequence: HMRHYVLKENNGVIAIYKVNQENEAVFKENTQIQVQYLPEVDLINLKKGIYAIGEEKLNSILEDF
- soluble fraction (log2): -0.667

Sequence: HMRIDSFEDARRRFEYDYLTRLLKLTQGSVTQAAKLAKRNRTEFYKLLQRHGIEAAHFKPTS
- soluble fraction (log2): -1.53
